Where a SMILES comes first, the peptide text is derived from it.
Experiments:
Assay in all cases: Kinase Profiling Assay
Type in all cases: biochemical
[1] = target: mTOR(h) (Homo sapiens, UniProt P42345); conditions: 100 μM peptide
Method: (§1) Every kinase activity measurement was conducted in duplicate.
(§2) In addition to determining the IC50 of the compound, the specificity of MK2 inhibitory peptides was assessed by examining activities of all 266 human kinases available for testing in the Millipore kinase profiling service (Table 1).

[2] = target: TrkB(h) (Homo sapiens, UniProt Q16620); conditions: for TrkB(h) % activity: 100 μM peptide
Method: as §1, §2

[3] = target: Abl(Y253F)(h) (Homo sapiens, UniProt P00519, Y253F); conditions: 100 μM peptide
Method: as §1, §2

[4] = target: T1, EphB1(h) (Homo sapiens, UniProt P54762); conditions: 100 μM peptide
T1 sequence (P54762 18-984): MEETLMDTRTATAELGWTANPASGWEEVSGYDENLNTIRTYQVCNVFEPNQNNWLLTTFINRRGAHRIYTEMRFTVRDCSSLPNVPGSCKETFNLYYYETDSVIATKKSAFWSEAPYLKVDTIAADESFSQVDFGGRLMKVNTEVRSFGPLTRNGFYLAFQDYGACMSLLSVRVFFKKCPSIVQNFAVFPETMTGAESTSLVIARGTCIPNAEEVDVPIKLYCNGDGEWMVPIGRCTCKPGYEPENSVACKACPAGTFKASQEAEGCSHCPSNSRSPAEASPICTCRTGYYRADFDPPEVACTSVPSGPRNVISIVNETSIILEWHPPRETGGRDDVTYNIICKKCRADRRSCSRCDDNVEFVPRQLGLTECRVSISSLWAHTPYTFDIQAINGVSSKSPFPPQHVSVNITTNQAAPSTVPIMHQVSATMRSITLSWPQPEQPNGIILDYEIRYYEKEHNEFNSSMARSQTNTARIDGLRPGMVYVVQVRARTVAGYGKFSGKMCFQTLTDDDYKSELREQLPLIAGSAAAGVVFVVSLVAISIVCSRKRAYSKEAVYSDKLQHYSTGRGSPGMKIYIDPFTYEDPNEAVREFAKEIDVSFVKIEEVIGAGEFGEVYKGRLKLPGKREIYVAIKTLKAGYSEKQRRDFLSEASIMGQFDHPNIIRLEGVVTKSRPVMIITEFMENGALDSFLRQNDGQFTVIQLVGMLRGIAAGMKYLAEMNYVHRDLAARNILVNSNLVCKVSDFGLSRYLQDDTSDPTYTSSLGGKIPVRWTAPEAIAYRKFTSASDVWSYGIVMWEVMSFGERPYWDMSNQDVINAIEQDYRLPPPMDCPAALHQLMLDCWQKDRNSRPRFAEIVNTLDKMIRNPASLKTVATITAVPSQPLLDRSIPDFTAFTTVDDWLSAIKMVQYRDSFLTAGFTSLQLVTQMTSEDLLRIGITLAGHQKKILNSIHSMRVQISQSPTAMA
Method: as §1, §2

[5] = target: T2, Ros(h) (Homo sapiens, UniProt P08922); conditions: 100 μM peptide
T2 construct: purchased Millipore (IC50 Profiler Express service)
T2 sequence (P08922 28-2347): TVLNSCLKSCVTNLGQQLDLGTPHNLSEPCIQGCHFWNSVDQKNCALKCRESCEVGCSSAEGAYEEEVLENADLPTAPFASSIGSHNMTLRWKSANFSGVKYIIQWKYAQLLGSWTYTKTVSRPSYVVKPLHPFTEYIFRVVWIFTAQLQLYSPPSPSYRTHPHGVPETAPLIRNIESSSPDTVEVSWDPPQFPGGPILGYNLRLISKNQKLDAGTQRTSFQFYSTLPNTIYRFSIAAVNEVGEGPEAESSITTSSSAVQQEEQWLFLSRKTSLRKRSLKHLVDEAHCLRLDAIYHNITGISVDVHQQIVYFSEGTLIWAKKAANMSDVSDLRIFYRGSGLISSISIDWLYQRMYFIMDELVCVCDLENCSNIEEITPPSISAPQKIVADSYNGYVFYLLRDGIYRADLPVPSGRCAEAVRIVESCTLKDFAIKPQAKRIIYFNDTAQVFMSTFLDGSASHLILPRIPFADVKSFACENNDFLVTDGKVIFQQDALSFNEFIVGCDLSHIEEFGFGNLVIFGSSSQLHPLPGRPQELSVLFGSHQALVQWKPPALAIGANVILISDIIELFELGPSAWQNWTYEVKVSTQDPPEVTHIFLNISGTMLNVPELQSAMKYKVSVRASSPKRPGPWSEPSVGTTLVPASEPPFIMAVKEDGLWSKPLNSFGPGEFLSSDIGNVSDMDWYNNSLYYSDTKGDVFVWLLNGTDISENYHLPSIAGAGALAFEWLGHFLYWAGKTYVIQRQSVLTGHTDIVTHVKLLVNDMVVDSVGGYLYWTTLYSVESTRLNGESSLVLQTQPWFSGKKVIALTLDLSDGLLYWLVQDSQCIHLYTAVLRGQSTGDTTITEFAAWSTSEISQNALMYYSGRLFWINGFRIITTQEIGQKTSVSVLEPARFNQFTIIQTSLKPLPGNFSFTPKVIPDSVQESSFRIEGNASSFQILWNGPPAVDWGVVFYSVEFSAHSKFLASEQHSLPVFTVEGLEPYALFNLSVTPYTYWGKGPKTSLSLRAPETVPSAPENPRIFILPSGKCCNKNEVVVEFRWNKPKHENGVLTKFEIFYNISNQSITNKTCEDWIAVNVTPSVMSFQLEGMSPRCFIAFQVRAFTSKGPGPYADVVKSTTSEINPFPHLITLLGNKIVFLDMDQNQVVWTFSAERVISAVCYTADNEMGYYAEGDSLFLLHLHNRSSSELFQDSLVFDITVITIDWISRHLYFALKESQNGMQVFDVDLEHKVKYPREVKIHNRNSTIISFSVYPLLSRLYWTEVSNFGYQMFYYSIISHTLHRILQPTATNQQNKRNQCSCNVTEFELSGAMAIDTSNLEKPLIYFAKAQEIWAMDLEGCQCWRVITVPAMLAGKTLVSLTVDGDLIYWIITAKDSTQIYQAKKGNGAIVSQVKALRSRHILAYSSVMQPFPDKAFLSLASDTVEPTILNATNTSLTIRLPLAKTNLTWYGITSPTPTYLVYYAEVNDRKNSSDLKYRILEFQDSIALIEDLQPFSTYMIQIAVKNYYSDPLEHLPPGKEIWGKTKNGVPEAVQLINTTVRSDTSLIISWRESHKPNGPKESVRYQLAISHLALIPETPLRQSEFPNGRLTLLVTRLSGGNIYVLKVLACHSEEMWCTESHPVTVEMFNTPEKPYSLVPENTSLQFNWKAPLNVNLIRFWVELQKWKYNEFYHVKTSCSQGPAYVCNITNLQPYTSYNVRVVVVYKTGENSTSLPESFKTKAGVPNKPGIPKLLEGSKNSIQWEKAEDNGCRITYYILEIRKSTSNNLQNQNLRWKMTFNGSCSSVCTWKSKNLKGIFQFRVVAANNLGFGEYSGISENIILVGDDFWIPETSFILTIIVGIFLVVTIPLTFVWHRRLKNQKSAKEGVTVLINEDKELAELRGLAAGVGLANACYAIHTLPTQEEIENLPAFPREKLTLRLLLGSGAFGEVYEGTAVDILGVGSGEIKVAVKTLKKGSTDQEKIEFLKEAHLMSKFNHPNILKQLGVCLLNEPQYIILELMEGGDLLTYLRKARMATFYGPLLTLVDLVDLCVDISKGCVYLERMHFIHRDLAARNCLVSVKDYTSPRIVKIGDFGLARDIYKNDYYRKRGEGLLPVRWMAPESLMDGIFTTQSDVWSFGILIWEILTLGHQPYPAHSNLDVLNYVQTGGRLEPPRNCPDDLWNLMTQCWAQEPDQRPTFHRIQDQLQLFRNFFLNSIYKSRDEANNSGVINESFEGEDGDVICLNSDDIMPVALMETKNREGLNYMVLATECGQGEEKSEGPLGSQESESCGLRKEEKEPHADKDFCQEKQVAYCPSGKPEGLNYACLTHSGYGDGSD
Method: as §1, §2

[6] = target: T3, IKKβ(h) (Homo sapiens, UniProt O14920); conditions: 100 μM peptide
T3 construct: purchased Millipore
T3 sequence (O14920 1-756): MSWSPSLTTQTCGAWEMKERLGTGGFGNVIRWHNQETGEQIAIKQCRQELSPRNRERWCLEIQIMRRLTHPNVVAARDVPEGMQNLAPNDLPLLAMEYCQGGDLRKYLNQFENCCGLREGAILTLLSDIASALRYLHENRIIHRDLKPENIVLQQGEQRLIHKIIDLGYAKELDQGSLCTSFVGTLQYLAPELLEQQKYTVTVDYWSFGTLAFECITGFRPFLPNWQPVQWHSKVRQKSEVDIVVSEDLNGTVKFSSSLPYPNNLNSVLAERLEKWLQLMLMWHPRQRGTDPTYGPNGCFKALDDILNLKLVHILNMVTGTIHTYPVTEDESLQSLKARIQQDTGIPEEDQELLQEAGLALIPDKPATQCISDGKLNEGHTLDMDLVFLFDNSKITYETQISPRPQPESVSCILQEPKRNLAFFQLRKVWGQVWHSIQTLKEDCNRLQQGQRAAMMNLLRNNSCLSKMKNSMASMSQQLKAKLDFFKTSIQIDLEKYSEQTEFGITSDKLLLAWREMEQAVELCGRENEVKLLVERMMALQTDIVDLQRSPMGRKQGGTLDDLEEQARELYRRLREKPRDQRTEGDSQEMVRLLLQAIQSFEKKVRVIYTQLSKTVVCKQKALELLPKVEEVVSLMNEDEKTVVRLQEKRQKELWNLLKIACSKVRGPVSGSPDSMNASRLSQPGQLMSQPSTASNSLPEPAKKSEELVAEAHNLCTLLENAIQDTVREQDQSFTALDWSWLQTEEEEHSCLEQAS
Method: as §1, §2

[7] = target: T4, TAO3(h) (Homo sapiens, UniProt Q9H2K8); conditions: 100 μM peptide
T4 sequence (Q9H2K8 1-898): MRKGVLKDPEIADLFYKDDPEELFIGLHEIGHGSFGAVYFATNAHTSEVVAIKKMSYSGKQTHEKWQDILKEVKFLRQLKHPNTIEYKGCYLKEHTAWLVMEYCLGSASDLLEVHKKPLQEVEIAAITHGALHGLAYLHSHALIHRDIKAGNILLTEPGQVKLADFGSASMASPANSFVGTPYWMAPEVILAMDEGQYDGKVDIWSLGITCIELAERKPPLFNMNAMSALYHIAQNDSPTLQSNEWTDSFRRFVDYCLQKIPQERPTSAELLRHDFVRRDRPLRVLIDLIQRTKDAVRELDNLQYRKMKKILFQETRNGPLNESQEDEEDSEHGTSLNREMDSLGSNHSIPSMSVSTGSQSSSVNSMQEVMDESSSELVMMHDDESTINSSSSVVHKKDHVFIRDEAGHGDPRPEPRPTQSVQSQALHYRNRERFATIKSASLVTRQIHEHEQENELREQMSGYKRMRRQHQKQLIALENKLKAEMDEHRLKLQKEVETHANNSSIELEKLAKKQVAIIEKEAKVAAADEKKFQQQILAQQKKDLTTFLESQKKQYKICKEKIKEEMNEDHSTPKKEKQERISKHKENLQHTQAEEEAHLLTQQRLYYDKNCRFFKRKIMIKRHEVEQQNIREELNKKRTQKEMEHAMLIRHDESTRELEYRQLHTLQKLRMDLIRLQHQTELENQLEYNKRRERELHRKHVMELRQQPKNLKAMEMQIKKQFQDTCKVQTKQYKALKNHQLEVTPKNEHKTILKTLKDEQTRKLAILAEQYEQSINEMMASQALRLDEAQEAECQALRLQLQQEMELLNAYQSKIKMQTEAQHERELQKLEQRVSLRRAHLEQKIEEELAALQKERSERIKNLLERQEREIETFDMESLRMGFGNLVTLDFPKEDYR
Method: as §1, §2

Compound | mTOR(h) % activity [1] | TrkB(h) % activity [2] | Abl(Y253F)(h) % activity [3] | EphB1(h) % activity [4] | Ros(h) % activity [5] | IKKβ(h) % activity [6] | TAO3(h) % activity [7] | inhibition at 100 µM ([2]; read-out: inhibition of kinase activity of TrkB)
HRRIKAWLKKIKALARQLGVAA (Mammalian) [MMI-0500] | 135% | 12% | 29% | 37% | 150% | 71% | 12% | 
CC(C)C[C@H](NC(=O)[C@H](C)NC(=O)[C@H](CCCCN)NC(=O)[C@H](C)NC(=O)[C@H](CCCNC(=N)N)NC(=O)[C@H](C)NC(=O)[C@H](CCC(N)=O)NC(=O)[C@H](CCCNC(=N)N)NC(=O)[C@H](C)NC(=O)[C@H](C)NC(=O)[C@H](C)NC(=O)[C@H](CCCNC(=N)N)NC(=O)[C@H](C)NC(=O)[C@@H](N)Cc1ccc(O)cc1)C(=O)N[C@@H](C)C(=O)N[C@@H](CCCNC(=N)N)C(=O)N[C@@H](CCC(N)=O)C(=O)N[C@@H](CC(C)C)C(=O)NCC(=O)N[C@H](C(=O)N[C@@H](C)C(=O)N[C@@H](C)C(=O)O)C(C)C [MMI-0100] (H-YARAAARQARAKALARQLGVAA-OH; N-terminus and C-terminus assumed) |  |  |  |  |  |  |  | > 65%
FAKLAARLYRKALARQLGVAA [MMI-0300] | 91% | 5% | 86% | 44% | 95% | 84% | 77% | 
YARAAARQARAKALNRQLGVA (Mammalian) [MMI-0200] | 110% | 7% |  | 95% | 86% |  |  | 
KAFAKLAARLYRKALARQLGVAA [MMI-0400] | 93% | 8% | 78% | 58% | 99% | 84% | 67% | 

Source: patent publication US10562947B2, “Compositions and methods for preventing or treating diseases, conditions or processes characterized by aberrant fibroblast proliferation and extracellular matrix deposition” (MOERAE MATRIX, INC., priority 2011, dated 2020)
